Reference: US20030124664

Biological target: human growth hormone (hGH) with the N-terminal phenylalanine, expressed and secreted from plasmid phGH4R, P01241
Sequence (P01241 27-217): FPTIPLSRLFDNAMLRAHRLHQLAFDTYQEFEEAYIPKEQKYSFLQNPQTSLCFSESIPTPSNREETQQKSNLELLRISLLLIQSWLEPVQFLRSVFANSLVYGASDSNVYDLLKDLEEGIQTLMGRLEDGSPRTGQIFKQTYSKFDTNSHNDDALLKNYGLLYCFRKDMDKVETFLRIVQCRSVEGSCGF

B1: native-sequence aminopeptidase b2324 (product of the E. coli chromosomal yfcK gene) (protein)
chain: MRSLTHIAKIEPPPVRRVTYVKHYSIQPANLEFNAEGTPVSRDFDDVYFSNDNGLEETRYVFLGGNQLEVRFPEHPHPLFVVAESGFGTGLNFLTLWQAFDQFREAHPQAQLQRLHFISFEKFPLTRADLALAHQHWPELAPWAEQLQAQWPMPLPGCHRLLLDEGRVTLDLWFGDINELTSQLDDSLNQKVDAWFLDGFAPAKNPDMWTQNLFNAMARLARPGGTLATFTSAGFVRRGLQDAGFTMQKRKGFGRKREMLCGVMEQTLPLPCSAPWFNRTGSSKREAAIIGGGIASALLSLALLRRGWQVTLYCADEAPALGASGNRQGALYPLLSKHDEALNRFFSNAFTFARRFYDQLPVKFDHDWCGVTQLGWDEKSQHKIAQMLSMDLPAELAVAVEANAVEQITGVATNCSGITYPQGGWLCPAELTRNVLELAQQQGLQIYYQYQLQNLSRKDDCWLLNFAGDQQATHSVVVLANGHQISRFSQTSTLPVYSVAGQVSHIPTTPELAELKQVLCYDGYLTPQNPANQHHCIGASYHRGSEDTAYSEDDQQQNRQRLIDCFPQAQWAKEVDVSDKEARCGVRCATRDHLPMVGNVPDYEATLVEYASLAEQKDEAVSAPVFDDLFMFAALGSRGLCSAPLCAEILAAQMSDEPIPMDASTLAALNPNRLWVRKLLKGKAVKAG
  N-terminal cleavage of hGH in crude lysate (LC-MS), yfcK deletion strain against control: virtually no phenylalanine-cleaved impurities after 15 hours of incubation at 37 °C
